Test in all cases: high-throughput RNA pulldown from lysate on Ni-NTA beads; HRP: 50 mM Tris pH 8, 150 mM NaCl, 1 mM beta-mercaptoethanol, 50 ug/ml BSA, 3 ug/ml yeast RNA, 0.5% heparin; ITC and FP: Tris pH 8, 200 mM KCl, 5% glycerol; MST: 50 mM Tris pH 8, 200 mM NaCl, 1 mM DTT, BSA, heparin, 0.05% Tween 20
Holding throughout (conditions): tags: N-terminal His-eGFP

For series [1], the target named is T1, GFP-9S library array, motif 4 ND N98A;D124T (synthetic construct, N98A;D124T).
T1 chain: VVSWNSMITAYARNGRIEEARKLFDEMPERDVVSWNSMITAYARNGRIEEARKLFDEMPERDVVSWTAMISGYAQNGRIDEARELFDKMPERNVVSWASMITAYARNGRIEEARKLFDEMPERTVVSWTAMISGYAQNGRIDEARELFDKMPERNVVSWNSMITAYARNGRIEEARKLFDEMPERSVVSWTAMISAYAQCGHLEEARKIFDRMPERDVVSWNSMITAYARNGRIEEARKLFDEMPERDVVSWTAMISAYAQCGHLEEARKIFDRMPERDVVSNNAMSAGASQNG

In series [2] the target is T2, GFP-9S library array, motif 4 ND N98A;D124V (synthetic construct, N98A;D124V).
T2 chain: T1 chain with T124V

The target in series [3] is T3, GFP-9S library array, motif 4 ND N98A;D124C (synthetic construct, N98A;D124C).
T3 chain: T1 chain with T124C

In series [4] the target is T4, GFP-9S library array, motif 4 ND N98Y;D124S (synthetic construct, N98Y;D124S).
T4 chain: T1 chain with A98Y, T124S

Series [5] concerns the target T5, GFP-9S library array, motif 4 ND N98L (synthetic construct, N98L).
T5 chain: T1 chain with A98L, T124D

Residue numbers refer to the chain shown, from its start.

B1: Cy5-rpoA (ssRNA)
RNA: AUUACACGUGA
What is called Kd is the constant that tells how readily two partners part at equilibrium. On to B1, for which the Kd is 102 nM in series [1] (label: 5' Cy5); 91.2 nM in series [2] (label: 5' Cy5); 112 nM in series [3] (label: 5' Cy5); 168 nM in series [4] (label: 5' Cy5); 214 nM in series [5] (label: 5' Cy5).

B2: IR-rpoA-A (ssRNA)
RNA: AUUAAACGUGA
For B2, the Kd in series [1] (label: 5' IRDye 800CW) was determined as 90.7 nM; in series [2] (label: 5' IRDye 800CW), 497 nM; in series [3] (label: 5' IRDye 800CW) it was 163 nM; in series [4] (label: 5' IRDye 800CW), 911 nM; in series [5] (label: 5' IRDye 800CW), 452 nM.

B3: Cy5-rpoA-G (ssRNA)
RNA: AUUAGACGUGA
With B3, the Kd in series [1] (label: 5' Cy5) turned out to be 107 nM; in series [2] (label: 5' Cy5) it was 124 nM; in series [3] (label: 5' Cy5) it was 73.1 nM; in series [4] (label: 5' Cy5), 224 nM; in series [5] (label: 5' Cy5), 183 nM.

B4: IR-rpoA-U (ssRNA)
RNA: AUUAUACGUGA
Regarding B4, the Kd came out at 68.9 nM in series [1] (label: 5' IRDye 800CW); 152 nM in series [2] (label: 5' IRDye 800CW); 92.2 nM in series [3] (label: 5' IRDye 800CW); 134 nM in series [4] (label: 5' IRDye 800CW); 66.3 nM in series [5] (label: 5' IRDye 800CW).

(Values after publication PMC8809517, “Cofactor-independent RNA editing by a synthetic S-type PPR protein”.)
